According to PMC4876229:

Key:
[1] = target: human recombinant plasminogen activator inhibitor‐1 (stable PAI‐1 variant 14‐1B) (human) (UniProt P05121)
[2] = target: human recombinant plasminogen activator inhibitor‐1 (stable PAI‐1 variant 14‐1B) (human) (UniProt P05121); remark: listed apart in the source
PN‐1 (human) = PN‐1 (human) (UniProt P07093)
[3] = target: human antithrombin‐III (human) (UniProt P01008)
[4] = target: human α2‐antiplasmin (human) (UniProt P08697)
[5] = target: recombinant human plasminogen activator inhibitor‐2 (human) (UniProt P05120)
[6] = target: human recombinant plasminogen activator inhibitor‐1 (stable PAI‐1 variant 14‐1B) (human) (UniProt P05121); remark: listed apart in the source
[7] = target: endogenous plasma PAI‐1 (human (endogenous in plasma)) (UniProt P05121)
murine PAI‐1 (murine) = murine PAI‐1 (murine) (UniProt P22777)
[8] = target: human recombinant plasminogen activator inhibitor‐1 (stable PAI‐1 variant 14‐1B) (human) (UniProt P05121); assay: SPR; anti‐PAI‐1 monoclonal antibody (Mab‐1) immobilised on a CM5 Biacore chip, PAI‐1 captured on it, uPA‐S195A variants applied from 25 nM to 48.8 pM; global fit to a 1:1 binding model; repeated three times
[9] = target: human recombinant plasminogen activator inhibitor‐1 (stable PAI‐1 variant 14‐1B) (human) (UniProt P05121); remark: listed apart in the source

| Substance | IC50, chromogenic assay: recovery of uPA activity (S‐2444 hydrolysis) from inhibition by PAI‐1 (15 nM PAI‐1, 15 nM human uPA); blocks PAI‐1 + uPA [1] [nM] | Kd [8] [nM] | koff [8] [s⁻¹] | kon [8] [M⁻¹ s⁻¹] | other results |
| --- | --- | --- | --- | --- | --- |
| PAItrap (uPA‐S195A‐G37bR‐R217L‐C122A‐N145Q) (domain or fragment) | 10 | 0.15 | 0.000627 | 4.11e+06 | IC50 of blocking PAI‐1 inhibition on tPA (Fig. S1); blocks PAI‐1 + tPA [2]: 14 nM; IC50, chromogenic assay: recovery of uPA activity (S2444) from inhibition by 15 nM PN‐1, 15 nM uPA, 37°C; blocks PN‐1 + uPA (PN‐1 (human)): 16000 nM; IC50, chromogenic assay: remaining thrombin activity (Gly‐Arg‐p‐nitroanilide) with 30 nM antithrombin‐III and 30 nM human α‐thrombin, 37°C; blocks antithrombin‐III + α‐thrombin [3]: 40000 nM; IC50, chromogenic assay: plasmin activity (Gly‐Arg‐p‐nitroanilide) with 15 nM α2‐antiplasmin and 15 nM human plasmin; blocks α2‐antiplasmin + plasmin [4]: > 50000 nM; IC50, chromogenic assay: recovery of uPA activity (S2444) from inhibition by 15 nM PAI‐2, 15 nM uPA, 37°C; blocks PAI‐2 + uPA [5]: 14000 nM; clot lysis time in human platelet‐poor plasma: 2.4 nM tPA, 0.9 nM PAI‐1, 6.5 nM PAItrap; blocks PAI‐1 + tPA [6]: 6 min; time to 50% clot lysis in platelet‐free plasma without exogenous PAI‐1: 100 pM tPA, 20 or 200 nM PAItrap (96 min without PAItrap); blocks PAI‐1 + tPA [7]: 68 min; IC50, chromogenic assay similar to that used for human PAI‐1; inhibition of murine PAI‐1 (murine PAI‐1 (murine)): 14 nM |
| uPA‐SPD S195A‐C122A‐N145Q (domain or fragment) | 109 | 1.57 | 0.00121 | 776000 | clot lysis time in human platelet‐poor plasma: 2.4 nM tPA, 0.9 nM PAI‐1, 6.5 nM uPA‐S195A; blocks PAI‐1 + tPA [9]: 39 min |
| uPA‐SPD S195A‐C122A‐N145Q‐A96E (domain or fragment) | 22 | – | – | – | – |
| uPA‐SPD S195A‐C122A‐N145Q‐G37bR (domain or fragment) | 25 | 0.32 | 0.000698 | 2.3e+06 | – |
| uPA‐SPD S195A‐C122A‐N145Q‐G37bR‐Y60bK (domain or fragment) | 90 | 0.83 | 0.00114 | 2.35e+06 | – |
| uPA‐SPD S195A‐C122A‐N145Q‐Y149R (domain or fragment) | > 3000 | – | – | – | – |
| uPA‐SPD S195A‐C122A‐N145Q‐Y151F (domain or fragment) | 1000 | – | – | – | – |

Now from value to substance, other results behind:

| IC50, chromogenic assay: recovery of uPA activity (S‐2444 hydrolysis) from inhibition by PAI‐1 (15 nM PAI‐1, 15 nM human uPA); blocks PAI‐1 + uPA [1] [nM] | Kd [8] [nM] | koff [8] [s⁻¹] | kon [8] [M⁻¹ s⁻¹] | Substance | other results |
| --- | --- | --- | --- | --- | --- |
| 30 | – | – | – | uPA‐SPD S195A‐C122A‐N145Q‐G37bR‐R217L‐A96E (domain or fragment) | – |
| 26 | – | – | – | uPA‐SPD S195A‐C122A‐N145Q‐G37bR‐Y60bK‐R217L (domain or fragment) | – |
| 3000 | – | – | – | uPA‐SPD S195A‐C122A‐N145Q‐Q192K (domain or fragment) | – |
| 48 | 0.63 | 0.00084 | 1.33e+06 | uPA‐SPD S195A‐C122A‐N145Q‐R217L (domain or fragment) | – |
